Results on two proteins are retold here after publication PMC11173052, “The Development of Robust Antibodies to Sarcospan, a Dystrophin- and Integrin-Associated Protein, for Basic and Translational Research” (International Journal of Molecular Sciences, 2024).

This data set deals with the molecule itself. The experiment in a line: oligomer bands on immunoblot of immunoprecipitated protein (reducing SDS-PAGE); quadriceps lysates (50 mM Tris, 150 mM NaCl, 1% NP-40, pH 7.4) of hSSPN-TG, mSSPN-TG, WT and SSPN-null mice immunoprecipitated with anti-SSPN monoclonal antibodies on protein A/G PLUS-agarose; eluates resolved by SDS-PAGE under reducing conditions and blotted with E2 or 10B8.

B1: mouse sarcospan (mSSPN) (natural protein, UniProt Q62147 1-216, looked up)
chain: MGRKPSPRAQELPEEEARTCCGCRFPLLLALLQLALGIAVTVLGFLMASISPSLLVRDTPFWAGSIVCVVAYLGLFMLCVSYQVDERTCVQFSMKVFYFLLSALGLMVCMLAVAFAAHHYSLLAQFTCETSLDSCQCKLPSSEPLSRAFVYRDVTDCTSVTGTFKLFLIIQMVLNLVCGLVCLLACFVMWKHRYQVFYVGVGLRSLMASDGQLPKA
notes: sarcospan, mouse, GenBank U02487; 25-kDa protein with four transmembrane domains; seen as monomer and as a dimer band on reducing SDS-PAGE of immunoprecipitates; also called mouse SSPN; murine SSPN; source: endogenous (wild type) or transgenic overexpression (mSSPN-TG, Ln28), mouse quadriceps muscle lysate
As a reminder, the stoichiometry N is a count of units in the complex or per binding partner. In the case of B1, the “stoichiometry N” value turned out to be 2.

B2: human sarcospan (hSSPN) (natural protein, UniProt Q14714 1-243, looked up)
chain: MGKNKQPRGQQRQGGPPAADAAGPDDMEPKKGTGAPKECGEEEPRTCCGCRFPLLLALLQLALGIAVTVVGFLMASISSSLLVRDTPFWAGIIVCLVAYLGLFMLCVSYQVDERTCIQFSMKLLYFLLSALGLTVCVLAVAFAAHHYSQLTQFTCETTLDSCQCKLPSSEPLSRTFVYRDVTDCTSVTGTFKLFLLIQMILNLVCGLVCLLACFVMWKHRYQVFYVGVRICSLTASEGPQQKI
notes: sarcospan, human, GenBank AF016028; hSSPN-TG muscle also holds endogenous mouse SSPN; also called human SSPN; source: transgenic overexpression in mouse skeletal muscle (hSSPN-TG, Ln3), quadriceps muscle lysate
B2: the “stoichiometry N” value was determined as 2.
